According to article PMC4303326:

Legend:
Test in all cases: electrochemical DNA sensor
[1] = target: T1, gene 32 protein (g32p), full-length (bacteriophage T4, UniProt P03695 1-301)
T1 sequence: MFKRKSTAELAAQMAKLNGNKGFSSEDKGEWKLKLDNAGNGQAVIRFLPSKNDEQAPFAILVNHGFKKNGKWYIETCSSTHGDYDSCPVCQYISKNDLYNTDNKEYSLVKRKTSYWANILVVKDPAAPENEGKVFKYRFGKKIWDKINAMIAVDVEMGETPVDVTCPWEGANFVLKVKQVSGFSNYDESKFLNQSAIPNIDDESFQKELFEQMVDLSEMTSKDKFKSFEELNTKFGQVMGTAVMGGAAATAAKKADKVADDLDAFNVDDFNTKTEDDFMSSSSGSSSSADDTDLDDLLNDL

[2] = target: T1, gene 32 protein (g32p), full-length; remark: listed apart in the source
thrombin = thrombin (bovine, UniProt P00735;P00735 318-366;367-625)

B1: (dT)21/(dA)21 duplex (dsDNA)
DNA 1: TTTTTTTTTTTTTTTTTTTTT
DNA 2: AAAAAAAAAAAAAAAAAAAAA
modifications: 5' thiol; 3' methylene blue on dT strand
[1]
  binding result: no binding

## TTTTTTTTTTTTTTTTTTTTT (ssDNA, 5' thiol; 3' methylene blue) [(dT)21 probe]
[2]
  Kd: ~100 nM
thrombin
  binding result: no binding
